Results taken from patent US20100129344.

T1: IGFBP-4 (human, GroPep), P22692
T1 chain: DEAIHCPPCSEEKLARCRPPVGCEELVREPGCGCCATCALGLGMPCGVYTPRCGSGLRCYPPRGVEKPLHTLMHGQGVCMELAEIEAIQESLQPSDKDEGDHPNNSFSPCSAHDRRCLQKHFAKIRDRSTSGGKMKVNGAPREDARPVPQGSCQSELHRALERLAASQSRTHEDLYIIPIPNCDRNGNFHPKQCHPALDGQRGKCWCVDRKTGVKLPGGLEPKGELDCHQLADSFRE

T2: IGFBP-2 (human, GroPep), P18065
T2 chain: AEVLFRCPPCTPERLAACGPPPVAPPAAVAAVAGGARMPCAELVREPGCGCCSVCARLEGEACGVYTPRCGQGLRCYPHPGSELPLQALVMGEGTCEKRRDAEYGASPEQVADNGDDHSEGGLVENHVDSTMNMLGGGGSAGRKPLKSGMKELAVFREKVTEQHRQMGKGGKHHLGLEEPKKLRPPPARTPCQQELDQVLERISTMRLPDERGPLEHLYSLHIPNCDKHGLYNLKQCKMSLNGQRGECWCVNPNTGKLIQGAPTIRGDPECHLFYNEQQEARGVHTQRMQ

T3: Recombinant non-phosphorylated IGFBP-1 (human), P08833
T3 chain: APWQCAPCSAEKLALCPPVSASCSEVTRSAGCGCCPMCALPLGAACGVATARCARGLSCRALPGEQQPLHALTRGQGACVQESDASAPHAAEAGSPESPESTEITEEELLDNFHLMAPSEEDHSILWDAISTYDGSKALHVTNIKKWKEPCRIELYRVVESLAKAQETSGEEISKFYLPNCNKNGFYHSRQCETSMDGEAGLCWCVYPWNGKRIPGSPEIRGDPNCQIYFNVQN

T4: Recombinant phosphorylated IGFBP-1 (human), intact, P08833
T4 chain: T3 chain

T5: Highly phosphorylated HepG2-purified IGFBP-1, P08833
T5 chain: T3 chain

T6: IGFBP-6 (human, GroPep), P24592
T6 chain: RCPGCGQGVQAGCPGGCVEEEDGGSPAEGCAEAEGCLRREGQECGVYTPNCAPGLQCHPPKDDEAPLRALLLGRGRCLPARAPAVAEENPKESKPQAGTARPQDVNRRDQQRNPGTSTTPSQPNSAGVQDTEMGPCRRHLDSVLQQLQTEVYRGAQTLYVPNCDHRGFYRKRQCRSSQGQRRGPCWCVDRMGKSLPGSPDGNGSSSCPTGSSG

T7: Dephosphorylated preparation of HepG2-purified IGFBP-1, P08833
T7 chain: T3 chain

B1: Azurocidin, native, partially purified from human urine by heparin affinity chromatography (protein)
chain: IVGGRKARPRQFPFLASIQNQGRHFCGGALIHARFVMTAASCFQSQNPGVSTVVLGAYDLRRRERQSRQTFSISSMSENGYDPQQNLNDLMLLQLDREANLTSSVTILPLPLQNATVEAGTRCQVAGWGSQRSGGRLSRFPRFVNVTVTPEDQCRPNNVCTGVLTRRGGICNGDGGTPLVCEGLAHGVASFSLGPCGRGPDFFTRVALFRDWIDGVLNNPGP
B2: Recombinant azurocidin 27-250, purified from murine myeloma cells (R&D Systems) (protein)
chain: IVGGRKARPRQFPFLASIQNQGRHFCGGALIHARFVMTAASCFQSQNPGVSTVVLGAYDLRRRERQSRQTFSISSMSENGYDPQQNLNDLMLLQLDREANLTSSVTILPLPLQNATVEAGTRCQVAGWGSQRSGGRLSRFPRFVNVTVTPEDQCRPNNVCTGVLTRRGGICNGDGGTPLVCEGLAHGVASFSLGPCGRGPDFFTRVALFRDWIDGVLNNPGPGP

Experiments:
[1] = biological target: Glycosylated IGFBP-3 (human, GroPep), P17936
Glycosylated IGFBP-3 (human, GroPep), P17936, sequence (P17936 28-291): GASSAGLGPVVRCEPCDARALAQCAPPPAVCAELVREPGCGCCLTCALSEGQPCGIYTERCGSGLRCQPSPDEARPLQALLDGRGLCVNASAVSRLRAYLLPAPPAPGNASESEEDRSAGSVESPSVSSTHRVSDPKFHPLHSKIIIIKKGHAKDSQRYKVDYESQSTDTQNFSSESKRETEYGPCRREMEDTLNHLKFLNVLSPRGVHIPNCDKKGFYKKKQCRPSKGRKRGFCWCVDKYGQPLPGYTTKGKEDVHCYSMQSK

[2] = biological target: T1, IGFBP-4 (human, GroPep), P22692
[3] = biological target: T2, IGFBP-2 (human, GroPep), P18065
[4] = biological target: T3, Recombinant non-phosphorylated IGFBP-1 …
[5] = biological target: IGFBP-5 (human, Upstate), P24593
IGFBP-5 (human, Upstate), P24593, sequence (P24593 21-272): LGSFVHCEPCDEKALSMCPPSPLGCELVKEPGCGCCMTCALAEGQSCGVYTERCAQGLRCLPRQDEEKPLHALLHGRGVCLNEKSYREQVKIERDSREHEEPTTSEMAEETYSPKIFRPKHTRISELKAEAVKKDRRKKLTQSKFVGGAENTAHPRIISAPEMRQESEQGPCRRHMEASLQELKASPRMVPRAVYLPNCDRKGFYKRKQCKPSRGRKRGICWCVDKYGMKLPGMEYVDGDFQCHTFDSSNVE

[6] = biological target: T4, Recombinant phosphorylated IGFBP-1 …
[7] = biological target: T5, Highly phosphorylated HepG2-purified …
[8] = biological target: T6, IGFBP-6 (human, GroPep), P24592
[9] = biological target: T7, Dephosphorylated preparation of …

Protein	cleavage of IGFBP by urine, 2 h at 37 C, neutral conditions [1]	cleavage of IGFBP by urine, 2 h at 37 C, neutral conditions [2]	cleavage of IGFBP by urine, 2 h at 37 C, neutral conditions [3]	cleavage of radioiodinated recombinant npIGFBP-1 by 0.25 µl heparin eluate at pH 2 and 7 (2 h, 37 C; SDS-PAGE, autoradiography) [4]	cleavage of radioiodinated recombinant npIGFBP-1 by 0.25 µl heparin eluate at pH 2 to 8 (2 h, 37 C; SDS-PAGE, autoradiography) [4]	cleavage of radioiodinated recombinant npIGFBP-1 by 0.5 µl urine after preincubation with 2, 5 or 10 ng IGF-I [4]	cleavage of radioiodinated recombinant npIGFBP-1 by 0.5 µl urine after preincubation with 2, 5 or 10 ng IGF-II [4]	cleavage of radioiodinated recombinant npIGFBP-1 by 0.5 µl urine after preincubation with 2, 5 or 10 ng insulin [4]	cleavage of radioiodinated recombinant npIGFBP-1 by 0.5 µl urine alone at pH 7 (2 h, 37 C; SDS-PAGE, autoradiography) [4]	cleavage of radioiodinated recombinant npIGFBP-1 by 0.5 µl urine at pH 2 to 8 (2 h, 37 C; SDS-PAGE, autoradiography); the neutral range is meant [4]	time course of degradation by 0.5 µl urine at 37 C (radioiodinated substrate, SDS-PAGE, autoradiography) [4]	cleavage of IGFBP by urine, 2 h at 37 C, neutral conditions [5]	proteolysis of IGFBP-1 (SDS-PAGE, silver staining) [6]	time course of degradation by 0.5 µl urine at 37 C (radioiodinated substrate, SDS-PAGE, autoradiography) [6]	cleavage of IGFBP-1 by urine, 2 h at 37 C, neutral conditions (affinity labelling with radioiodinated IGF-I, SDS-PAGE, autoradiography) [7]	cleavage of IGFBP by urine, 2 h at 37 C, neutral conditions [8]	cleavage of IGFBP-1 by urine, 2 h at 37 C, neutral conditions (affinity labelling with radioiodinated IGF-I, SDS-PAGE, autoradiography) [9]	proteolysis of IGFBP-1 [6]
B1	2 µl had minimal effect on ... glycosylated (g) IGFBP-3	2 µl had minimal effect on ... not shown here, IGFBP-4	2 µl had minimal effect on IGFBP-2	eluate at pH 2: strong 30K band, no fragments; eluate at pH 7: faint 30K band and a strong band at 14.3K	the 30K band is strong at pH 2 and 4, a little weaker at pH 5, thin at pH 6 and absent at pH 7, 7.5 and 8; bands at 14.3K appear at pH 5 and 6 and are strongest at pH 7 and 7.5	at 2, 5 and 10 ng IGF-I the upper band is kept, weaker than in the untreated lane (*), and the lower band is only faint; no clear change from 2 to 10 ng	at 2, 5 and 10 ng IGF-II the upper band is kept, weaker than in the untreated lane (*), and the lower band is only faint; no clear change from 2 to 10 ng	at all three amounts of insulin the upper band is as faint as with urine alone and the lower band is seen	lane U: the upper band of the untreated lane (*) is nearly gone and a strong lower band appears	the 30K band is strong at pH 6, weaker at pH 5, faint at pH 7 and absent at pH 7.5 and 8; strong fragment bands at 14.3K at pH 7, 7.5 and 8 (at pH 2 and 4 the 30K band is also absent, with only faint signal near 14.3K)	no difference was found in the rate of degradation of each isoform, with fragments visible within 3 min, and substantial degradation by 2 h	2 µl had minimal effect on ... IGFBP-5	Azurocidin-dependent proteolysis of phosphorylated IGFBP-1 was seen within minutes, using a protease:substrate molar ratio of 1:3,500	no difference was found in the rate of degradation of each isoform, with fragments visible within 3 min, and substantial degradation by 2 h	One µl of urine cleaved more than 50% of each IGFBP-1 isoform	2 µl had minimal effect on ... not shown here, IGFBP-4 and IGFBP-6	One µl of urine cleaved more than 50% of each IGFBP-1 isoform	
B2																		Recombinant human azurocidin^27-250, produced in mouse myeloma cells, had no effect on IGFBP-1 (data not shown)
